# Measured values reported in the RNAGym collection of RNA variant scans (doi:10.7554/elife.80360).
# B1: HDV Ribozyme (parent)
# chain: GGCCGGCAUGGUCCCAGCCUCCUCGCUGGCGCCGGCUGGGCAACAUUCCGAGGGGACCGUCCCCUCGGUAAUGGCGAAUGGGACCCA
# Variants of: B1
# Assay: self-cleavage, relative activity (ratio to wild type); higher = more cleavage; co-transcriptional
row,Variant,self-cleavage
1,C33U A56U,0.758
2,C33G G74C,0.237
3,C33G G55U,0.204
4,G35U A70U,0.496
5,G35U A70G,0.554
6,C36A C48G,0.203
7,G35C G74U,0.133
8,G34C G54U,0.123
9,G34U A45U,0.0378
10,G34U G54A,0.041
11,G34U G54C,0.0468
12,C36A C75U,0.0963
13,G34U G35U,0.175
14,C33G C85G,0.151
15,G35A C86A,0.643
16,G35A C41G,0.222
17,G35A C41U,0.524
18,C36A A56C,0.131
19,G35C A87U,0.208
20,G34A C61U,0.213
21,G35U C61U,0.554
22,G35U C61G,0.286
23,G35A C57G,0.684
24,C33U A83G,0.511

row,Variant,self-cleavage
1,C33U A83U,0.415
2,G34C U79C,0.227
3,C33U C63U,0.845
4,G34A G53A,0.174
5,C33G U47G,0.0723
6,C33U C44A,0.499
7,G34A G59A,0.214
8,G34A G59C,0.225
9,G34A G59U,0.266
10,G35U U79A,0.166
11,G34U G68A,0.274
12,G34A A70U,0.132
13,G35U C85G,0.356
14,G35U C85A,0.373
15,G34C U37G,0
16,G34C U37C,0.156
17,G35A U72C,0.283
18,G35A A70U,0.62
19,C33U G82A,0.302
20,C33G G40C,0.138
21,G35A A56C,0.346
22,G34C U46G,0.0504
23,G35A G53A,0.411
24,G35C A42G,0.192

row,Variant,self-cleavage
1,G35C A42C,0.107
2,G35A U65G,0.554
3,C33U C36A,0.151
4,G34C U60A,0.306
5,C33G G38U,0.246
6,G35U C49U,0.554
7,G34C G39U,0.156
8,G35U C41U,0.63
9,G35C C41A,0.237
10,G35C C41G,0.161
11,G34A G73A,0.128
12,G35C U60G,0.353
13,G35C G68U,0.305
14,G35A U47A,0.466
15,G35U G55A,0.477
16,G35U G55C,0.409
17,G34U C66G,0.164
18,G34U C66A,0.0712
19,C33U C61A,0.721
20,G34C C63U,0.287
21,G35C C57A,0.302
22,G35C C57G,0.201
23,G35A G81A,0.277
24,G34U A78U,0.121

row,Variant,self-cleavage
1,G34A A78U,0.0489
2,G34C U69A,0.0739
3,C33U U46A,0.434
4,G34U C41U,0.131
5,G35U G40U,0.12
6,G35U G40A,0.304
7,G34A U37A,0.0554
8,G34A U37C,0.102
9,G35A A43C,0.0272
10,G34A C48G,0.119
11,G34C C48U,0.17
12,C36A G54A,0.0804
13,C36A G54U,0.229
14,G35C A45G,0.237
15,G34A G38A,0.0583
16,G34C A56G,0.142
17,G34C A56C,0.237
18,G35C A83G,0.237
19,G35C A83C,0.162
20,G35U U72C,0.0811
21,C36A C44U,0.208
22,C36A C44A,0.19
23,G35C G50C,0.0923
24,G35U A42C,0.115

row,Variant,self-cleavage
1,C33U C41G,0.372
2,G35A G76A,0.709
3,G35C U47A,0.0594
4,G34C C36A,0.0707
5,G35C G59A,0.256
6,G35A G82U,0.241
7,G34A U69C,0.291
8,G35C A71G,0.262
9,G35C A71U,0.128
10,G34C C61A,0.208
11,C33G C66A,0.198
12,G34C G53A,0.229
13,G35C C75G,0.391
14,G35U C44U,0.193
15,C36A A77G,0.0791
16,G35C G76U,0.465
17,G34A C84A,0.126
18,C36A A83C,0.0791
19,G34A C66U,0.0665
20,G34A C66A,0.286
21,G35A C61U,0.511
22,G34U C49U,0.136
23,G34A C41G,0.141
24,C33U C64G,0.736

row,Variant,self-cleavage
1,G35C C85A,0.213
2,G35U U69A,0.212
3,G35C C86G,0.0489
4,G35A C66U,0.655
5,G34C C44U,0.0739
6,G35A U69A,0.571
7,C33U G68U,0.678
8,C33U G68C,0.789
9,G35U U65G,0.424
10,G35U U65A,0.35
11,C36A G39C,0.128
12,G34C G50U,0.175
13,C33G G34A,0.0831
14,C36A C64U,0.237
15,G35C A56U,0.232
16,G35C A56G,0.128
17,C36A C86A,0.134
18,G34A A77U,0.0339
19,G34A C58U,0.122
20,G34A C58G,0.177
21,C36A C84G,0.208
22,G34U G81C,0.144
23,G35C G39C,0.119
24,C33U A71G,0.886

row,Variant,self-cleavage
1,G35C A70G,0.208
2,C33G G54C,0.143
3,G35A G59A,0.494
4,G35A G59U,0.646
5,G35A G59C,0.61
6,G35U U46A,0.116
7,G35U U46G,0.141
8,C36A C85U,0.158
9,G34U G53C,0.136
10,G34C G68C,0.128
11,G34C C84U,0.217
12,G34A C36A,0.0978
13,G35A C84G,0.45
14,G35U G73A,0.0911
15,G34A A56U,0.256
16,G34A A56G,0.104
17,G34A G82A,0.0671
18,G34A G82U,0.129
19,G34C C49A,0.249
20,G34C C49U,0.208
21,C33U U60C,0.773
22,G35U G53C,0.478
23,G35U G53A,0.42
